Molecular target: WT Max (Homo sapiens, UniProt P61244-2 13-93, M65Nle, norleucine written as M; other non-natural residues written as X)
Assay: PBM; 50-200 nM protein; PBS, 2% milk, BSA, salmon testes DNA, 0.02% Triton X-100
Conditions: chain copies: 2; label: surface-attached array probe

WT Max, sequence (P61244 other isoform, or with tags, fused parts or gaps M65Nle): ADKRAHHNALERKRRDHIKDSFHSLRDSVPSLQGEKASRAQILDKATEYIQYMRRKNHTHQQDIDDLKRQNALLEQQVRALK

B1: dBr_Jan07_30456 (dsDNA)
DNA 1: GGCGTTGTCAGGAAGGATTGGCTGTCGTCAACACGTGTCTGTGTTCCGTTGTCCGTGCTG
DNA 2: CAGCACGGACAACGGAACACAGACACGTGTTGACGACAGCCAATCCTTCCTGACAACGCC
Which binding signal does the source give for B1 here?
Its binding signal is 3.62 robust z of log adjusted intensity (ours), mean of two arrays.

B2: dBr_Jan07_24960 (dsDNA)
DNA 1: CGCAAAGCATTATCAACCTGGGTGCCTATCACGTGGGTCTGTGTTCCGTTGTCCGTGCTG
DNA 2: CAGCACGGACAACGGAACACAGACCCACGTGATAGGCACCCAGGTTGATAATGCTTTGCG
With B2 as the binder, how does the binding signal read?
The binding signal was 4.08 robust z of log adjusted intensity (ours), mean of two arrays.

B3: dBr_Jan07_41742 (dsDNA)
DNA 1: AGAGTCATTGGGGAGGCAAAATTCCCACGTGTATCGGTCTGTGTTCCGTTGTCCGTGCTG
DNA 2: CAGCACGGACAACGGAACACAGACCGATACACGTGGGAATTTTGCCTCCCCAATGACTCT
B3 was tested. Which binding signal did it give?
The binding signal was 4.07 robust z of log adjusted intensity (ours), mean of two arrays.

B4: dBr_Jan07_14817 (dsDNA)
DNA 1: AGCGAGAGGCTGCTCACTCGTGGCAACACCCACGTGGTCTGTGTTCCGTTGTCCGTGCTG
DNA 2: CAGCACGGACAACGGAACACAGACCACGTGGGTGTTGCCACGAGTGAGCAGCCTCTCGCT
B4 was tested. Which binding signal did it give?
The binding signal was 4.16 robust z of log adjusted intensity (ours), mean of two arrays.

B5: dBr_Jan07_08390 (dsDNA)
DNA 1: GTATTGTTGCGTATGTCACGTGGTACAAAACCCAGGGTCTGTGTTCCGTTGTCCGTGCTG
DNA 2: CAGCACGGACAACGGAACACAGACCCTGGGTTTTGTACCACGTGACATACGCAACAATAC
How did the binding signal turn out when B5 was run?
The binding signal was 4.12 robust z of log adjusted intensity (ours), mean of two arrays.

B6: dBr_Jan07_23485 (dsDNA)
DNA 1: CAGTGTAGAAAGTGAACACGTGTGACACGCCTGGTTGTCTGTGTTCCGTTGTCCGTGCTG
DNA 2: CAGCACGGACAACGGAACACAGACAACCAGGCGTGTCACACGTGTTCACTTTCTACACTG
For B6, which binding signal is on record?
The binding signal was 4.26 robust z of log adjusted intensity (ours), mean of two arrays.

B7: dBr_Jan07_03394 (dsDNA)
DNA 1: ATGGACCAATTGCGCGGAATGACGTGTCGCGCACGTGTCTGTGTTCCGTTGTCCGTGCTG
DNA 2: CAGCACGGACAACGGAACACAGACACGTGCGCGACACGTCATTCCGCGCAATTGGTCCAT
How did the binding signal turn out when B7 was run?
The binding signal was 3.89 robust z of log adjusted intensity (ours), mean of two arrays.

B8: dBr_Jan07_23034 (dsDNA)
DNA 1: TCCGTACGGTCTCGTTCCATAGCTTGCTACCATGTGGTCTGTGTTCCGTTGTCCGTGCTG
DNA 2: CAGCACGGACAACGGAACACAGACCACATGGTAGCAAGCTATGGAACGAGACCGTACGGA
Which binding signal does the source give for B8 here?
Its binding signal is 3.64 robust z of log adjusted intensity (ours), mean of two arrays.

B9: dBr_Jan07_15488 (dsDNA)
DNA 1: TAGTAGTCGTTGCTAGCTGCAAGGAATGGCGCACGTGTCTGTGTTCCGTTGTCCGTGCTG
DNA 2: CAGCACGGACAACGGAACACAGACACGTGCGCCATTCCTTGCAGCTAGCAACGACTACTA
With B9 as the binder, how does the binding signal read?
Its binding signal is 3.81 robust z of log adjusted intensity (ours), mean of two arrays.

B10: dBr_Jan07_20507 (dsDNA)
DNA 1: GTGCCCGATTGTCTACGGCACCACGTGTGTTACCAGGTCTGTGTTCCGTTGTCCGTGCTG
DNA 2: CAGCACGGACAACGGAACACAGACCTGGTAACACACGTGGTGCCGTAGACAATCGGGCAC
How did the binding signal turn out when B10 was run?
The binding signal was 4.13 robust z of log adjusted intensity (ours), mean of two arrays.

B11: dBr_Jan07_28926 (dsDNA)
DNA 1: CGCAGCCATTACCGCGTGGGAGTATTCGCCCGTACGGTCTGTGTTCCGTTGTCCGTGCTG
DNA 2: CAGCACGGACAACGGAACACAGACCGTACGGGCGAATACTCCCACGCGGTAATGGCTGCG
Which binding signal does the source give for B11 here?
The binding signal was 3.92 robust z of log adjusted intensity (ours), mean of two arrays.

B12: dBr_Jan07_20580 (dsDNA)
DNA 1: AAATACCTATCGATAACCACTCACGTGGTGGTTCGCGTCTGTGTTCCGTTGTCCGTGCTG
DNA 2: CAGCACGGACAACGGAACACAGACGCGAACCACCACGTGAGTGGTTATCGATAGGTATTT
For B12, which binding signal is on record?
Its binding signal is 3.85 robust z of log adjusted intensity (ours), mean of two arrays.

B13: dBr_Jan07_27306 (dsDNA)
DNA 1: ACTATACAGTTTATTCATACACGGGTGCCTGCACGTGTCTGTGTTCCGTTGTCCGTGCTG
DNA 2: CAGCACGGACAACGGAACACAGACACGTGCAGGCACCCGTGTATGAATAAACTGTATAGT
Which binding signal does the source give for B13 here?
Its binding signal is 3.99 robust z of log adjusted intensity (ours), mean of two arrays.

B14: dBr_Jan07_09181 (dsDNA)
DNA 1: CACATTATTTCACACGTGGACGGCACCCACAAACACGTCTGTGTTCCGTTGTCCGTGCTG
DNA 2: CAGCACGGACAACGGAACACAGACGTGTTTGTGGGTGCCGTCCACGTGTGAAATAATGTG
With B14 as the binder, how does the binding signal read?
The binding signal was 3.99 robust z of log adjusted intensity (ours), mean of two arrays.

B15: dBr_Jan07_13904 (dsDNA)
DNA 1: CGCTGCCCCATATTTGTCATGCGTTTGCGGCACGTGGTCTGTGTTCCGTTGTCCGTGCTG
DNA 2: CAGCACGGACAACGGAACACAGACCACGTGCCGCAAACGCATGACAAATATGGGGCAGCG
B15 was tested. Which binding signal did it give?
Its binding signal is 3.73 robust z of log adjusted intensity (ours), mean of two arrays.

B16: dBr_Jan07_37497 (dsDNA)
DNA 1: CCAGTTAGTAACACGTGTCCACTCCTTGTCGTACAGGTCTGTGTTCCGTTGTCCGTGCTG
DNA 2: CAGCACGGACAACGGAACACAGACCTGTACGACAAGGAGTGGACACGTGTTACTAACTGG
For B16, which binding signal is on record?
The binding signal was 4.27 robust z of log adjusted intensity (ours), mean of two arrays.

B17: dBr_Jan07_02651 (dsDNA)
DNA 1: TGCATAACGACCGGCACGTGCCTTTCATATGTATCTGTCTGTGTTCCGTTGTCCGTGCTG
DNA 2: CAGCACGGACAACGGAACACAGACAGATACATATGAAAGGCACGTGCCGGTCGTTATGCA
For B17, which binding signal is on record?
The binding signal was 3.82 robust z of log adjusted intensity (ours), mean of two arrays.

B18: dBr_Jan07_17036 (dsDNA)
DNA 1: ACATTTCTCCGCTCGTCCCACATAGCGTCACGTGGGGTCTGTGTTCCGTTGTCCGTGCTG
DNA 2: CAGCACGGACAACGGAACACAGACCCCACGTGACGCTATGTGGGACGAGCGGAGAAATGT
With B18 as the binder, how does the binding signal read?
Its binding signal is 4.03 robust z of log adjusted intensity (ours), mean of two arrays.

B19: dBr_Jan07_17844 (dsDNA)
DNA 1: AATGGACTCGTTTTTTTTGCGTTATTAGACCACGCGGTCTGTGTTCCGTTGTCCGTGCTG
DNA 2: CAGCACGGACAACGGAACACAGACCGCGTGGTCTAATAACGCAAAAAAAACGAGTCCATT
Which binding signal does the source give for B19 here?
Its binding signal is 3.78 robust z of log adjusted intensity (ours), mean of two arrays.

B20: dBr_Jan07_17989 (dsDNA)
DNA 1: GTCACGTGAATGCGACCCGCCAATTGGAAATTAAATGTCTGTGTTCCGTTGTCCGTGCTG
DNA 2: CAGCACGGACAACGGAACACAGACATTTAATTTCCAATTGGCGGGTCGCATTCACGTGAC
Which binding signal does the source give for B20 here?
The binding signal was 4.17 robust z of log adjusted intensity (ours), mean of two arrays.

B21: dBr_Jan07_05071 (dsDNA)
DNA 1: CGTGTAACCTTCAGGCACGTGGTTTAATCGTTATCCGTCTGTGTTCCGTTGTCCGTGCTG
DNA 2: CAGCACGGACAACGGAACACAGACGGATAACGATTAAACCACGTGCCTGAAGGTTACACG
B21 was tested. Which binding signal did it give?
Its binding signal is 4.32 robust z of log adjusted intensity (ours), mean of two arrays.

B22: dBr_Jan07_17404 (dsDNA)
DNA 1: TTGCGTGTTGTGTCTAATATCCAAACTACACCACGTGTCTGTGTTCCGTTGTCCGTGCTG
DNA 2: CAGCACGGACAACGGAACACAGACACGTGGTGTAGTTTGGATATTAGACACAACACGCAA
Which binding signal does the source give for B22 here?
The binding signal was 4.24 robust z of log adjusted intensity (ours), mean of two arrays.

B23: dBr_Jan07_02368 (dsDNA)
DNA 1: CTGTAGAACTGGCATCTTCAATCCACCGCGTGGTGAGTCTGTGTTCCGTTGTCCGTGCTG
DNA 2: CAGCACGGACAACGGAACACAGACTCACCACGCGGTGGATTGAAGATGCCAGTTCTACAG
With B23 as the binder, how does the binding signal read?
The binding signal was 5.5 robust z of log adjusted intensity (ours), mean of two arrays.

B24: dBr_Jan07_17567 (dsDNA)
DNA 1: CCAAGAGGACCACGTGCTTTGGTCTCTAACTCGTATGTCTGTGTTCCGTTGTCCGTGCTG
DNA 2: CAGCACGGACAACGGAACACAGACATACGAGTTAGAGACCAAAGCACGTGGTCCTCTTGG
How did the binding signal turn out when B24 was run?
The binding signal was 3.82 robust z of log adjusted intensity (ours), mean of two arrays.

B25: dBr_Jan07_07015 (dsDNA)
DNA 1: CGATACTGTATCGCATGGACAGCACGTGCAATTAGGGTCTGTGTTCCGTTGTCCGTGCTG
DNA 2: CAGCACGGACAACGGAACACAGACCCTAATTGCACGTGCTGTCCATGCGATACAGTATCG
B25 was tested. Which binding signal did it give?
The binding signal was 3.94 robust z of log adjusted intensity (ours), mean of two arrays.

B26: dBr_Jan07_10488 (dsDNA)
DNA 1: ACCTCGGACATGCACATTTGTCTTAAACCACGTGCGGTCTGTGTTCCGTTGTCCGTGCTG
DNA 2: CAGCACGGACAACGGAACACAGACCGCACGTGGTTTAAGACAAATGTGCATGTCCGAGGT
With B26 as the binder, how does the binding signal read?
The binding signal was 4.16 robust z of log adjusted intensity (ours), mean of two arrays.

B27: dBr_Jan07_16170 (dsDNA)
DNA 1: TACTAGATTACTACAGACGTTTGCGATCACGTGCATGTCTGTGTTCCGTTGTCCGTGCTG
DNA 2: CAGCACGGACAACGGAACACAGACATGCACGTGATCGCAAACGTCTGTAGTAATCTAGTA
Which binding signal does the source give for B27 here?
The binding signal was 5.85 robust z of log adjusted intensity (ours), mean of two arrays.

B28: dBr_Jan07_31948 (dsDNA)
DNA 1: TGTCATTACCTGTCCGAGCAGGACAAAAAACCACGTGTCTGTGTTCCGTTGTCCGTGCTG
DNA 2: CAGCACGGACAACGGAACACAGACACGTGGTTTTTTGTCCTGCTCGGACAGGTAATGACA
Which binding signal does the source give for B28 here?
The binding signal was 4.44 robust z of log adjusted intensity (ours), mean of two arrays.

B29: dBr_Jan07_15832 (dsDNA)
DNA 1: TGCTAGGTGCGGGGCGTGCCATTGTACCACGTGGCTGTCTGTGTTCCGTTGTCCGTGCTG
DNA 2: CAGCACGGACAACGGAACACAGACAGCCACGTGGTACAATGGCACGCCCCGCACCTAGCA
B29 was tested. Which binding signal did it give?
Its binding signal is 3.84 robust z of log adjusted intensity (ours), mean of two arrays.

B30: dBr_Jan07_11048 (dsDNA)
DNA 1: CGAAATCTTACATGCTCTTGGGTCTAAGACGCACGTGTCTGTGTTCCGTTGTCCGTGCTG
DNA 2: CAGCACGGACAACGGAACACAGACACGTGCGTCTTAGACCCAAGAGCATGTAAGATTTCG
For B30, which binding signal is on record?
The binding signal was 5.56 robust z of log adjusted intensity (ours), mean of two arrays.

B31: dBr_Jan07_18911 (dsDNA)
DNA 1: ACAAACCCCGCACGTGCCTTCGCCCCCTCCTATGCGGTCTGTGTTCCGTTGTCCGTGCTG
DNA 2: CAGCACGGACAACGGAACACAGACCGCATAGGAGGGGGCGAAGGCACGTGCGGGGTTTGT
How did the binding signal turn out when B31 was run?
Its binding signal is 3.79 robust z of log adjusted intensity (ours), mean of two arrays.

B32: dBr_Jan07_40749 (dsDNA)
DNA 1: CTTCATGTCGCCCGCGTGGGTTGCCACACCAAGTGCGTCTGTGTTCCGTTGTCCGTGCTG
DNA 2: CAGCACGGACAACGGAACACAGACGCACTTGGTGTGGCAACCCACGCGGGCGACATGAAG
B32 was tested. Which binding signal did it give?
The binding signal was 4.44 robust z of log adjusted intensity (ours), mean of two arrays.

B33: dBr_Jan07_06714 (dsDNA)
DNA 1: TTCCGCGTGGACGTGACATCGTAGACGATTACCCACGTCTGTGTTCCGTTGTCCGTGCTG
DNA 2: CAGCACGGACAACGGAACACAGACGTGGGTAATCGTCTACGATGTCACGTCCACGCGGAA
How did the binding signal turn out when B33 was run?
The binding signal was 4.26 robust z of log adjusted intensity (ours), mean of two arrays.
